Assay results published in patent US20080167219.

Biological target: purified human factor X (UniProt P00742)
Chain of UniProt P00742 (P00742 whole entry, looked up): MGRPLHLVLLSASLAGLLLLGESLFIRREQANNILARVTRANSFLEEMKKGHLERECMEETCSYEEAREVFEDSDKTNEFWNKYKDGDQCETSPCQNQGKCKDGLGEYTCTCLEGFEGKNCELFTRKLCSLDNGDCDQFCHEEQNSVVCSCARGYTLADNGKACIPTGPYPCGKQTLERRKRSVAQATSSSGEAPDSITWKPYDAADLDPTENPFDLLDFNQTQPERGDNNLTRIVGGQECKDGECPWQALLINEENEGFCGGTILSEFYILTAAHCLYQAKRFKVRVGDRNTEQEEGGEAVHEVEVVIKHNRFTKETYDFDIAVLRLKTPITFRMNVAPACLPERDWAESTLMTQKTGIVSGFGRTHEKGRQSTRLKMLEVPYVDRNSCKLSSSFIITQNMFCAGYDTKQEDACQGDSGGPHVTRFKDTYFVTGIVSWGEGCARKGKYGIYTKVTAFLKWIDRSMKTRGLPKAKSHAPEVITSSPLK

Substance | KM for factor X, with 0.4 nM FVIIIa | KM for factor X, without FVIIIa | Kcat, with 0.4 nM FVIIIa | Kcat, without FVIIIa | Vmax of factor Xa generation, with 0.4 nM FVIIIa | Vmax of factor Xa generation, without FVIIIa | kcat/KM, with 0.4 nM FVIIIa | kcat/KM, without FVIIIa
recombinant human factor IX IX-1, single alanine replacement at residue 86 | 0.0554 µM | 0.532 µM | 5.09 s⁻¹ | 0.000225 s⁻¹ | 15.1 nM FXa/min | 0.14 nM FXa/min | 9.3e+07 M⁻¹ s⁻¹ | 429 M⁻¹ s⁻¹
recombinant wild type human factor IX (IX-7) | 0.054 µM | 0.757 µM | 14.2 s⁻¹ | 0.000262 s⁻¹ | 27.8 nM FXa/min | 0.16 nM FXa/min | 2.64e+08 M⁻¹ s⁻¹ | 353 M⁻¹ s⁻¹
